Measurements: article PMC5090064, “Coordinated regulation of the ESCRT-III component CHMP4C by the chromosomal passenger complex and centralspindlin during cytokinesis” (Open Biology, 2016)

What was measured:
MKLP1 = MKLP1 (UniProt Q02241); assay: GFP-Trap pull-down, Flag western blot
[1] = target: T1, CPC mini-complex (Survivin full-length, Borealin full-length and INCENP 1–57) (UniProt Q53HL2 1-280; O15392 1-142; Q9NQS7 1-57); assay: atomic force microscopy; purified proteins on mica surfaces without lipid bilayers, imaged under fluid at room temperature; conditions: both partners purified
T1 construct: Borealin, full-length, TEV-cleavable His-tagged, pETM vector; Survivin, full-length, 3C-cleavable GFP-tagged, pRSET vector; INCENP residues 1–57 (methods; the results say the first 58 amino acids), untagged, pMCNcs vector; Results call the INCENP piece INCENP 1–58, methods 1–57; also called mini-CPC; copies: + +
T1 sequence (Q53HL2 whole entry, chain 1 of 3, the tested form may be a part): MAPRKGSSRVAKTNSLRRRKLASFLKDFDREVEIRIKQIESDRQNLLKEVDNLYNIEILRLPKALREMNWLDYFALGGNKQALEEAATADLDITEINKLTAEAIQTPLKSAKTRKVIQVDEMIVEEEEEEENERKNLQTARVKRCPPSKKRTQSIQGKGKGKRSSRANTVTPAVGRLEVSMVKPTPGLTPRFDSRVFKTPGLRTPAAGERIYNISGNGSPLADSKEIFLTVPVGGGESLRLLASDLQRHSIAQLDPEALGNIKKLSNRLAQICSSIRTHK
T1 sequence (O15392 whole entry, chain 2 of 3, the tested form may be a part): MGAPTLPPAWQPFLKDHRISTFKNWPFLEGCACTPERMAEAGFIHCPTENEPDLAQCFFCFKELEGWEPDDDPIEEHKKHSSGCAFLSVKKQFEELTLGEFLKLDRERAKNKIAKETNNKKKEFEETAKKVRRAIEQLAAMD
T1 sequence (Q9NQS7 1-57, chain 3 of 3): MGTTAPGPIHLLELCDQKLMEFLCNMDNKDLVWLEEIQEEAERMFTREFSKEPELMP

binding against the reference (MKLP1; reference: S210A, sites S214,S215) | binding against the reference (MKLP1; reference: wild type, sites S210,S214,S215) | Molecule | binding result [1]
stronger | stronger | CHMP4C (from UniProt Q96CF2) StripleA (S210A, S214A, S215A) | 
 |  | CHMP4C (purified recombinant, full-length) (natural protein, human, UniProt Q96CF2 1-233, looked up, CHMP4C, human, full-length ORF cloned into pET-His6-msfGFP as a TEV-cleavable His-tagged protein; also called His6-GFP::CHMP4C; purified CHMP4C; source: E. coli BL21 Gold, purified (Ni-NTA, TEV cleavage, Superdex 200); not shown: His6, N-terminal, cleaved) MSKLGKFFKGGGSSKSRAAPSPQEALVRLRETEEMLGKKQEYLENRIQREIALAKKHGTQNKRAALQALKRKKRFEKQLTQIDGTLSTIEFQREALENSHTNTEVLRNMGFAAKAMKSVHENMDLNKIDDLMQEITEQQDIAQEISEAFSQRVGFGDDFDEDELMAELEELEQEELNKKMTNIRLPNVPSSSLPAQPNRKPGMSSTARRSRAASSQRAEEEDDDIKQLAAWAT | binds
